What was measured:
[1] = biological target: T1, recombinant human factor H, Y402 variant, produced in the PER.C6 cell line
T1 chain: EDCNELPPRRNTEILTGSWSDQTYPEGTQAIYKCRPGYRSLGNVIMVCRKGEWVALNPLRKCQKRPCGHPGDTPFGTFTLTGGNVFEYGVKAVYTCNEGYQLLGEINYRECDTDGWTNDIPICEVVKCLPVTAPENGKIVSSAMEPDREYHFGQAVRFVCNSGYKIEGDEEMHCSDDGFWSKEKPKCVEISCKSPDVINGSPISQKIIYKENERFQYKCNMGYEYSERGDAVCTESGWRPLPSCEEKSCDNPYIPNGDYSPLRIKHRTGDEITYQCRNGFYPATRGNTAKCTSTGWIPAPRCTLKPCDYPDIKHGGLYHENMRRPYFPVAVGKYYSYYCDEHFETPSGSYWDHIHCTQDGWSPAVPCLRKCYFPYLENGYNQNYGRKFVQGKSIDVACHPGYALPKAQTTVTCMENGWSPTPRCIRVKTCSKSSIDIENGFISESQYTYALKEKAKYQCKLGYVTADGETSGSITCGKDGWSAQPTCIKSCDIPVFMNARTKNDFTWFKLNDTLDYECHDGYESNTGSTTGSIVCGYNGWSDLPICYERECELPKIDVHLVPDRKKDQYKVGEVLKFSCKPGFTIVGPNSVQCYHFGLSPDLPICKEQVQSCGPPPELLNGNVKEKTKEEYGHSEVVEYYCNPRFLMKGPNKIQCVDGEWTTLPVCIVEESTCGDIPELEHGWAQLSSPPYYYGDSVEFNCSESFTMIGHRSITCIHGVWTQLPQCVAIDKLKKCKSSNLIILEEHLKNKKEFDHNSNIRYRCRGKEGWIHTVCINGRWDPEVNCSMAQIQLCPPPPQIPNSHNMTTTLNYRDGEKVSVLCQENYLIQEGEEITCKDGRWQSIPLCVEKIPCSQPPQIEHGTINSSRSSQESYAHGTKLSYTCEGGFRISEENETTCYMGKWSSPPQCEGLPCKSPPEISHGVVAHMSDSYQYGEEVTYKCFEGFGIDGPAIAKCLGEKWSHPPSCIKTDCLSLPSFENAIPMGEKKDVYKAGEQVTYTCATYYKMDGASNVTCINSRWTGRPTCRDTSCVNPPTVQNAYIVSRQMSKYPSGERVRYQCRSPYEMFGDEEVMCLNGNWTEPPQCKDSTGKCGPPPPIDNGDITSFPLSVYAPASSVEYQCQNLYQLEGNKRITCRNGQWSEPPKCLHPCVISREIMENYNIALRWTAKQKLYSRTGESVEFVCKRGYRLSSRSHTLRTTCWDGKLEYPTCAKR

[2] = biological target: T2, recombinant human factor H, Y402 variant, produced in the HEK 293F cell line
T2 chain: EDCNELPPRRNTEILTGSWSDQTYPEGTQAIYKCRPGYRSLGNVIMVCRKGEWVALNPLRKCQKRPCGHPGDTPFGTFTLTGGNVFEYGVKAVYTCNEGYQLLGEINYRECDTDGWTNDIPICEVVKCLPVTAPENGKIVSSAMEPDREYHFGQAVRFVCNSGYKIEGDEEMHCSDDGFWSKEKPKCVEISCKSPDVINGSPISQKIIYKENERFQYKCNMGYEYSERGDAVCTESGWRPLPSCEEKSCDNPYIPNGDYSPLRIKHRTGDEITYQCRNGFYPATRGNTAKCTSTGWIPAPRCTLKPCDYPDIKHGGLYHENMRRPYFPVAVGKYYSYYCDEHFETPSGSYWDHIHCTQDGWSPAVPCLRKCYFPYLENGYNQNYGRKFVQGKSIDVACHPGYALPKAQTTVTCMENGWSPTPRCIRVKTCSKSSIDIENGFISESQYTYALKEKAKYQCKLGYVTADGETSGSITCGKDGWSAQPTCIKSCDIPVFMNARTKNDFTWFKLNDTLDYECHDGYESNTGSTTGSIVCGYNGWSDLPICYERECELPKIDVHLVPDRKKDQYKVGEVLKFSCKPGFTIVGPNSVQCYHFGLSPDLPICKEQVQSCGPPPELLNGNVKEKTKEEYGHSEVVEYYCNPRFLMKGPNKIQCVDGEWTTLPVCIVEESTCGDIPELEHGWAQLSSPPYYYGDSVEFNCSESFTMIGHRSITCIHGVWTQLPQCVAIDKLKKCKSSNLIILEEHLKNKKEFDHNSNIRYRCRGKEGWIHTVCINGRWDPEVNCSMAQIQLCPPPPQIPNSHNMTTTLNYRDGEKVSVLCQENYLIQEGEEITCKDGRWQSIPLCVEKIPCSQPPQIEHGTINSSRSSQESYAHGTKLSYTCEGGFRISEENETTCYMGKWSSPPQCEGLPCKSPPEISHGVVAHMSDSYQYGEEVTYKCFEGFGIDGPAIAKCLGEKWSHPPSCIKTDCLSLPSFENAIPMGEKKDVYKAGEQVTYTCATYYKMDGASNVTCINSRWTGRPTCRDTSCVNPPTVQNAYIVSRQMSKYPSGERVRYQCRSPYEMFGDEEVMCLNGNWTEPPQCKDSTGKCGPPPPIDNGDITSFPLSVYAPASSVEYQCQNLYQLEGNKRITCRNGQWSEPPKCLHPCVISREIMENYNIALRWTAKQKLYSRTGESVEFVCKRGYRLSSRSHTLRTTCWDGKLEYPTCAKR

[3] = biological target: purified human plasma factor H (batch LFB), P08603

B1: Factor I (protein)
chain: KVTYTSQEDLVEKKCLAKKYTHLSCDKVFCQPWQRCIEGTCVCKLPYQCPKNGTAVCATNRRSFPTYCQQKSLECLHPGTKFLNNGTCTAEGKFSVSLKHGNTDSEGIVEVKLVDQDKTMFICKSSWSMREANVACLDLGFQQGADTQRRFKLSDLSINSTECLHVHCRGLETSLAECTFTKRRTMGYQDFADVVCYTQKADSPMDDFFQCVNGKYISQMKACDGINDCGDQSDELCCKACQGKGFHCKSGVCIPSQYQCNGEVDCITGEDEVGCAGFASVTQEETEILTADMDAERRRIKSLLPKLSCGVKNRMHIRRKRIVGGKRAQLGDLPWQVAIKDASGITCGGIYIGGCWILTAAHCLRASKTHRYQIWTTVVDWIHPDLKRIVIEYVDRIIFHENYNAGTYQNDIALIEMKKDGNKKDCELPRSIPACVPWSPYLFQPNDTCIVSGWGREKDNERVFSLQWGEVKLISNCSKFYGNRFYEKEMECAGTYDGSIDACKGDSGGPLVCMDANNVTYVWGVVSWGENCGKPEFPGVYTKVANYFDWISYHVGRPFISQYNV
cofactor activity of Factor I (liquid-phase cleavage of the C3b α′ chain, SDS-PAGE) [1]: the recombinant FHs produced by the PER.C6 and HEK 293F lines have a similar cofactor activity of FI and that this activity is comparable to that of the human plasma FH
cofactor activity of Factor I (liquid-phase cleavage of the C3b α′ chain, SDS-PAGE) [2]: the recombinant FHs produced by the PER.C6 and HEK 293F lines have a similar cofactor activity of FI and that this activity is comparable to that of the human plasma FH
cofactor activity of Factor I (liquid-phase cleavage of the C3b α′ chain, SDS-PAGE) [3]: this activity is comparable to that of the human plasma FH
